One assay addresses HLA-B*1401 (human) (UniProt P01889). The assay is described as follows: Luminex beads; MAb 1/200; competitor IgG-free serum.
In assay [1] the target is HLA-Cw*0801 (human) (UniProt P10321). Kind of assay: Luminex beads; MAb 1/400; competitor IgG-free serum.
Another assay has as its target HLA-Cw*1802 (human) (UniProt P10321). The description is as above.
Assay [2] has as its target HLA-Cw*1701 (human). Described as above.
The next assay deals with HLA-B*4006 (human) (UniProt P01889). The assay is described as above.
Assay [3] addresses HLA-B*5101 (human). The assay is described as follows: Luminex beads; MAb 1/400; competitor rHLA-E.
The target in assay [4] is HLA-B*1402 (human). The assay is described as follows: Luminex beads; MAb 1/400; competitor rHLA-E.
The target of assay [5] is HLA-Cw*1701 (human). Kind of assay: Luminex beads; MAb 1/400; competitor rHLA-E.
For assay [6], the target named is HLA-Cw*0501 (human). The assay is described as follows: Luminex beads; MAb 1/400; competitor rHLA-E.
The target in the next assay is HLA-Cw*1601 (human) (UniProt P10321). Kind of assay: Luminex beads; MAb 1/400; competitor rHLA-E.
The target in assay [7] is HLA-B*1511 (human) (UniProt P01889). The assay is described as follows: Luminex beads; MAb 1/400; competitor rHLA-E.
Assay [8] concerns the target HLA-Cw*0302 (human) (UniProt P10321). Kind of assay: Luminex beads; MAb 1/400; competitor rHLA-E.
Another assay has as its target HLA-B*1513 (human). The assay is described as follows: Luminex beads; MAb 1/400; competitor rHLA-E.
The target of the next assay is HLA-B*3701 (human). The assay is described as follows: Luminex beads; MAb 1/400; competitor rHLA-E.
Assay [9] has as its target HLA-B*5201 (human). Kind of assay: Luminex beads; MAb 1/200; competitor rHLA-E.
In assay [10] the target is HLA-Cw*0501 (human). Kind of assay: Luminex beads; MAb 1/200; competitor rHLA-E.
The next assay addresses HLA-B*4403 (human). Kind of assay: Luminex beads; MAb 1/200; competitor rHLA-E.
Assay [11] concerns the target HLA-Cw*1502 (human). Kind of assay: Luminex beads; MAb 1/200; competitor rHLA-E.
Assay [12] has as its target HLA-Cw*0302 (human) (UniProt P10321). The assay is described as follows: Luminex beads; MAb 1/200; competitor rHLA-E.
In assay [13] the target is HLA-B*4402 (human). Kind of assay: Luminex beads; MAb 1/200; competitor rHLA-E.
In a further assay the target is HLA-B*4701 (human). The assay is described as follows: Luminex beads; MAb 1/200; competitor rHLA-E.
The target in assay [14] is HLA-Cw*0702 (human) (UniProt P10321). Kind of assay: Luminex beads; MAb 1/200; competitor rHLA-E.
Assay [15] has as its target HLA-B*5101 (human). The assay is described as follows: Luminex beads; MAb 1/1600; competitor IgG-free serum.
For assay [16], the target named is HLA-B*1402 (human). Described as above.
In assay [17] the target is HLA-B*5201 (human). Described as above.
For another assay, the target named is HLA-B*1502 (human). The description is as above.
In the next assay the target is HLA-B*5801 (human). The assay is described as above.
For assay [18], the target named is HLA-Cw*0801 (human) (UniProt P10321). Described as above.
Assay [19] has as its target HLA-Cw*1701 (human). The assay is described as above.
The next assay addresses HLA-B*4801 (human) (UniProt P01889). Described as above.
For another assay, the target named is HLA-B*4101 (human) (UniProt P01889). The assay is described as above.
The target of a further assay is HLA-Cw*1402 (human) (UniProt P10321). Described as above.
Assay [20] has as its target HLA-B*1511 (human) (UniProt P01889). The description is as above.
The target in assay [21] is HLA-Cw*1502 (human). The description is as above.
The target in another assay is HLA-Cw*0304 (human). The description is as above.
The target in assay [22] is HLA-Cw*0302 (human) (UniProt P10321). The assay is described as above.
The target of assay [23] is HLA-B*4402 (human). The description is as above.
The target in the next assay is HLA-B*2708 (human) (UniProt P01889). The assay is described as above.
The next assay addresses HLA-Cw*0303 (human). The assay is described as above.
The target of assay [24] is HLA-Cw*0702 (human) (UniProt P10321). Described as above.
Another assay concerns the target HLA-B*4002 (human) (UniProt P01889). The assay is described as above.
A further assay concerns the target HLA-B*4901 (B49) (human). Kind of assay: Luminex single-antigen beads; MEM-E/02 1/600; serum Mi92 1/100.
Another assay addresses HLA-B*1511 (B75) (human) (UniProt P01889). The description is as above.
For the next assay, the target named is HLA-B*2708 (B27) (human) (UniProt P01889). The assay is described as above.
The target of a further assay is HLA-B*3801 (B38) (human). Described as above.

Take “murine monoclonal antibody (MAb) MEM-E/02”: the MFI is 5370 MFI in the assay with HLA-B*1401 (human); 3530 MFI in the assay with HLA-Cw*0801 (human) [1]; 7220 MFI with HLA-Cw*1802 (human); 1360 MFI in the assay with HLA-Cw*1701 (human) [2]; 5550 MFI with HLA-B*4006 (human); 128 MFI with HLA-B*5101 (human) [3]. The MFI with HLA-B*1402 (human) [4] turned out to be 88 MFI; in the assay with HLA-Cw*1701 (human) [5] it was 184 MFI; with HLA-Cw*0501 (human) [6], 87 MFI; with HLA-Cw*1601 (human), 87 MFI; in the assay with HLA-B*1511 (human) [7], 111 MFI; with HLA-Cw*0302 (human) [8], 130 MFI. The MFI came out at 228 MFI with HLA-B*1513 (human); 39 MFI in the assay with HLA-B*3701 (human); 87 MFI with HLA-B*5201 (human) [9]; 147 MFI in the assay with HLA-Cw*0501 (human) [10]; 75 MFI with HLA-B*4403 (human); 86 MFI with HLA-Cw*1502 (human) [11]. For the same substance, the MFI in the assay with HLA-Cw*0302 (human) [12] came to 137 MFI; in the assay with HLA-B*4402 (human) [13], 66 MFI; in the assay with HLA-B*4701 (human), 67 MFI; in the assay with HLA-Cw*0702 (human) [14] it was 137 MFI; in the assay with HLA-B*5101 (human) [15], 281 MFI; in the assay with HLA-B*1402 (human) [16], 301 MFI. In addition, the MFI in the assay with HLA-B*5201 (human) [17] was found to be 337 MFI; with HLA-B*1502 (human) it was 350 MFI; in the assay with HLA-B*5801 (human), 485 MFI; with HLA-Cw*0801 (human) [18] it was 865 MFI; in the assay with HLA-Cw*1701 (human) [19], 392 MFI; in the assay with HLA-B*4801 (human), 412 MFI. Also, the MFI is 392 MFI with HLA-B*4101 (human); 432 MFI in the assay with HLA-Cw*1402 (human); 388 MFI in the assay with HLA-B*1511 (human) [20]; 317 MFI in the assay with HLA-Cw*1502 (human) [21]; 370 MFI with HLA-Cw*0304 (human); 335 MFI in the assay with HLA-Cw*0302 (human) [22]. Besides, the MFI with HLA-B*4402 (human) [23] stood at 248 MFI; in the assay with HLA-B*2708 (human) it was 272 MFI; in the assay with HLA-Cw*0303 (human), 332 MFI; with HLA-Cw*0702 (human) [24], 295 MFI; with HLA-B*4002 (human), 403 MFI.
As to murine monoclonal antibody MAb MEM-E/02, the MFI is 890 MFI with HLA-B*4901 (B49) (human), 946 MFI with HLA-B*1511 (B75) (human), < 500 MFI with HLA-B*2708 (B27) (human) and < 500 MFI with HLA-B*3801 (B38) (human).

For the origin of these results see patent publication US20120171195A1.
